Like-named read-outs stand apart in the source and are kept apart here.
Assays:
Experiment in all cases: ELISA
[1] = target: His-tagged ASH/RhoGAP domain of OCRL (536aa-901aa) (human) (UniProt Q01968)
[2] = target: His-tagged ASH/RhoGAP domain of OCRL (536aa-901aa) (human) (UniProt Q01968); remark: listed apart in the source
[3] = target: His-tagged ASH/RhoGAP domain of OCRL (536aa-901aa) (human) (UniProt Q01968); remark: listed apart in the source

Chain of His-tagged ASH/RhoGAP domain of OCRL (536aa-901aa) (human) (Q01968 536-901): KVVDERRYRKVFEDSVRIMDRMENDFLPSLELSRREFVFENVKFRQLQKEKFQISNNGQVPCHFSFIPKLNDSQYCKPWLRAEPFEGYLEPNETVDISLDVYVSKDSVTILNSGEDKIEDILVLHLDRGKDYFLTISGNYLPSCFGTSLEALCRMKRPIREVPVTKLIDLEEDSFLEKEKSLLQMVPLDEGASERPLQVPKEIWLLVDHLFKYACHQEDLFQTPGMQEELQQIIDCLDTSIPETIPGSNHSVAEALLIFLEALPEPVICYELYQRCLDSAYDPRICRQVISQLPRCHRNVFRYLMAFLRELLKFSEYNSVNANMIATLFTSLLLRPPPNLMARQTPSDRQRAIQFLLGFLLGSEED

GST-SdhA-CBM2 (from UniProt Q6RCQ3 1029-1260) (domain or fragment)
EC50 [1]: 87.4 nM | EC50 [2]: 80.7 nM

GST-SdhA-CBM2A (from UniProt Q6RCQ3 1029-1080) (domain or fragment)
EC50 [2]: 27.2 nM | EC50 [3]: 8.1 nM

Source: doi:10.1101/2020.10.04.325654
